For this assay, the target named is hen egg-white lysozyme (hen, UniProt P00698 19-147). As to the kind of experiment: method not stated.

B1: cAb-Lys3 (VHH)
VHH: DVQLQASGGGSVQAGGSLRLSCAASGYTIGPYCMGWFRQAPGKEREGVAAINMGGGITYYADSVKGRFTISQDNAKNTVYLLMNSLEPEDTAIYYCAADSTIYASYYECGHGLSTGGYGYDSWGQGTQVTVSS
The molecule B1 gave a Ka of 2e+07 M⁻¹.

Source of the values: patent WO1997049805A2 (dated 1997).
